The values below come from patent US20100260668A1 (published 2010).

The chains are these.
B1: DVD494 (bispecific antibody, human IgG1, kappa)
heavy: not shown
light: DIQMTQSPSSLSASVGDRVTITCSASQDISNYLNWYQQKPGKAPKVLIYFTSSLHSGVPSRFSGSGSGTDFTLTISSLQPEDFATYYCQQYSTVPWTFGQGTKVEIKRTVAAPSVFIFPPDIQMTQSSSYLSVSLGGRVTITCKASDHINNWLAWYQQKPGNAPRLLISGATSLETGVPSRFSGSGSGKDYTLSITSLQTEDVATYYCQQYWSIPLTFGAGTKLELKRTVAAPSVFIFPPSDEQLKSGTASVVCLLNNFYPREAKVQWKVDNALQSGNSQESVTEQDSKDSTYSLSSTLTLSKADYEKHKVYACEVTHQGLSSPVTKSFNRGEC
notes: DVD-Ig; N-term; VD VEGF (AB014), C-term; VD DLL4 (AB072); HC linker long, LC linker long; also called DVD-Ig DVD494; DVD494H
B2: DVD506 (bispecific antibody, human IgG1, kappa)
heavy: not shown
light: DIQMTQSPSSLSASVGDRVTITCSASQDISNYLNWYQQKPGKAPKVLIYFTSSLHSGVPSRFSGSGSGTDFTLTISSLQPEDFATYYCQQYSTVPWTFGQGTKVEIKRTVAAPSVFIFPPDIQMTQSSSYLSVSLGGRVTITCKASDHINNWLAWYQQKPGNAPRLLISGATSLETGVPSRFSGSGSGKDYTLSITSLQTEDVATYYCQQYWSIPLTFGAGTKLELKRTVAAPSVFIFPPSDEQLKSGTASVVCLLNNFYPREAKVQWKVDNALQSGNSQESVTEQDSKDSTYSLSSTLTLSKADYEKHKVYACEVTHQGLSSPVTKSFNRGEC
notes: DVD-Ig; N-term; VD VEGF (AB014), C-term; VD DLL4 (AB072); HC linker short, LC linker long; also called DVD-Ig DVD506; DVD506H
B3: DVD488 (bispecific antibody, human IgG1, kappa)
heavy: not shown
light: DIQMTQSPSSLSASVGDRVTITCSASQDISNYLNWYQQKPGKAPKVLIYFTSSLHSGVPSRFSGSGSGTDFTLTISSLQPEDFATYYCQQYSTVPWTFGQGTKVEIKRTVAAPDIQMTQSSSYLSVSLGGRVTITCKASDHINNWLAWYQQKPGNAPRLLISGATSLETGVPSRFSGSGSGKDYTLSITSLQTEDVATYYCQQYWSIPLTFGAGTKLELKRTVAAPSVFIFPPSDEQLKSGTASVVCLLNNFYPREAKVQWKVDNALQSGNSQESVTEQDSKDSTYSLSSTLTLSKADYEKHKVYACEVTHQGLSSPVTKSFNRGEC
notes: DVD-Ig; N-term; VD VEGF (AB014), C-term; VD DLL4 (AB072); HC linker short, LC linker short; also called DVD-Ig DVD488; DVD488H
B4: DVD524 (bispecific antibody, human IgG1, lambda)
heavy: not shown
light: DIQMTQSPSSLSASVGDRVTITCSASQDISNYLNWYQQKPGKAPKVLIYFTSSLHSGVPSRFSGSGSGTDFTLTISSLQPEDFATYYCQQYSTVPWTFGQGTKVEIKRTVAAPQAVVTQESALTTSPGETVTLTCRSSTGAVTTSNYANWVQEKPDHLFTGLIGGTNNRAPGVPARFSGSLIGDKAALTITGAQTEDEAIYFCALWYSNHWVFGGGTKLTVLGQPKAAPSVTLFPPSSEELQANKATLVCLISDFYPGAVTVAWKADSSPVKAGVETTTPSKQSNNKYAASSYLSLTPEQWKSHRSYSCQVTHEGSTVEKTVAPTECS
notes: DVD-Ig; N-term; VD VEGF (AB014), C-term; VD DLL4 (AB073); HC linker long, LC linker short; also called DVD-Ig DVD524; DVD524H
B5: DVD530 (bispecific antibody, human IgG1, kappa, lambda, L234A L235A)
heavy: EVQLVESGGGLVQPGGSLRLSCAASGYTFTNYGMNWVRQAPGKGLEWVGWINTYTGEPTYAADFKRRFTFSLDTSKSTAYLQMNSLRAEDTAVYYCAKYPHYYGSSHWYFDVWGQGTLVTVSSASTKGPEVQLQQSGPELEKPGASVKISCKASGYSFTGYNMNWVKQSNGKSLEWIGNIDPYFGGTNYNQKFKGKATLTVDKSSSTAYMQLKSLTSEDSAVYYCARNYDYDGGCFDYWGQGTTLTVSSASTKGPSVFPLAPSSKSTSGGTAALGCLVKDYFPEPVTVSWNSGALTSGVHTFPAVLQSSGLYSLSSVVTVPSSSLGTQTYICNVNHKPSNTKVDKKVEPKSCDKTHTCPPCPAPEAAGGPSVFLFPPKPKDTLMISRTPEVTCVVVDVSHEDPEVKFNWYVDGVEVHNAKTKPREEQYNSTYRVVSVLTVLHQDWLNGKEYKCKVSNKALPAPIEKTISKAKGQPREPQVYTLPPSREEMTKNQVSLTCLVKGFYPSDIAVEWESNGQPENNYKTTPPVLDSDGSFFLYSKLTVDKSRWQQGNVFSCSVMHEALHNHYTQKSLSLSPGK
light: DIQMTQSPSSLSASVGDRVTITCSASQDISNYLNWYQQKPGKAPKVLIYFTSSLHSGVPSRFSGSGSGTDFTLTISSLQPEDFATYYCQQYSTVPWTFGQGTKVEIKRTVAAPSVFIFPPQAVVTQESALTTSPGETVTLTCRSSTGAVTTSNYANWVQEKPDHLFTGLIGGTNNRAPGVPARFSGSLIGDKAALTITGAQTEDEAIYFCALWYSNHWVFGGGTKLTVLGQPKAAPSVTLFPPSSEELQANKATLVCLISDFYPGAVTVAWKADSSPVKAGVETTTPSKQSNNKYAASSYLSLTPEQWKSHRSYSCQVTHEGSTVEKTVAPTECS
notes: DVD-Ig; N-term; VD VEGF (AB014), C-term; VD DLL4 (AB073); HC linker short, LC linker long; also called DVD-Ig DVD530; DVD530H

In this assay the target is T1, DLL4 (DLL ECD His tag, R&D 1506-D4-050) (UniProt Q9NR61 27-529).
T1 construct: extracellular domain; bought
In words: BIACORE (SPR), DVD-Ig against DLL4. On the technique in general: Surface plasmon resonance follows binding to a sensor surface in real time, without labels.
B1 yielded a dissociation constant Kd of 1.39 nM, an off-rate constant (koff) of 0.000183 s⁻¹ and a kon of 132000 M⁻¹ s⁻¹.
In the case of B2, binding was characterised by a dissociation constant (Kd) of 1.47 nM, the off-rate constant (koff) is 0.000104 s⁻¹ and the kon amounted to 70700 M⁻¹ s⁻¹.
B3: binding was characterised by a dissociation constant (Kd) of 0.418 nM, the koff is 6.62e-05 s⁻¹ and the on-rate (kon) was determined as 159000 M⁻¹ s⁻¹.
On the same counts, the results for B4 are 9.45 nM, 0.000877 s⁻¹ and 92800 M⁻¹ s⁻¹.
For B5, in that order: 5.38 nM, 0.00219 s⁻¹ and 407000 M⁻¹ s⁻¹.

As a reminder, the Kd is a measure of binding affinity in units of concentration. A low value points to higher affinity. The term koff denotes the rate constant with which the complex falls apart. Usually kon stands for the rate constant with which the complex forms. A lower kon goes with slower complex formation.
